Laboratory results as given in the supplement of paper PMC9112550, “Optimization of the antimicrobial peptide Bac7 by deep mutational scanning” (BMC Biology, 2022).

Each sequence was assayed on Escherichia coli TOP10 (assay: shrunken log2 fold change of peptide-encoding DNA abundance (4.5 h post-induction vs induction); higher = less antimicrobial activity (less host growth inhibition)). Conditions: time post-induction: 4.5 h; library: site-saturation at positions 5, 18, 19, 20.
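Further: peptides expressed intracellularly from a pBAD plasmid library in pooled LB shake-flask culture, induced with 0.3% L-arabinose, DNA abundance read by NGS, three biological replicates, DESeq2 with apeglm shrinkage.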

Sequence	shrunken log2 fold change
RRIRSRPPRLPRPRPRPILMPRP	-0.172
RRIRMRPPRLPRPRPRPYYKPRP	-0.611
RRIRMRPPRLPRPRPRPRPVPRP	1.17
RRIRARPPRLPRPRPRPEDDPRP	0.306
RRIRRRPPRLPRPRPRPIQTPRP	0.00408
RRIRARPPRLPRPRPRPTTMPRP	0.156
RRIRDRPPRLPRPRPRPTCDPRP	0.224
RRIRERPPRLPRPRPRPSCEPRP	-0.668
RRIRIRPPRLPRPRPRPSHEPRP	-0.159
RRIRSRPPRLPRPRPRPHDNPRP	-0.308
RRIRNRPPRLPRPRPRPMMIPRP	-0.0237
RRIRDRPPRLPRPRPRPWWSPRP	-0.0691
RRIRYRPPRLPRPRPRPRYEPRP	-0.415
RRIRQRPPRLPRPRPRPKNMPRP	-0.646
RRIRMRPPRLPRPRPRPNHGPRP	-0.00135
RRIRGRPPRLPRPRPRPQAAPRP	1.22
RRIRHRPPRLPRPRPRPQLNPRP	-0.593
RRIRHRPPRLPRPRPRPWIQPRP	-0.0803
RRIRLRPPRLPRPRPRPMPKPRP	-0.105
RRIRSRPPRLPRPRPRPLCCPRP	0.473
RRIRKRPPRLPRPRPRPHEDPRP	0.139
RRIRTRPPRLPRPRPRPLMEPRP	0.0859

Sequence	shrunken log2 fold change
RRIRGRPPRLPRPRPRPMYEPRP	0.282
RRIRRRPPRLPRPRPRPNEWPRP	0.0626
RRIRVRPPRLPRPRPRPRPIPRP	0.611
RRIRRRPPRLPRPRPRPVKWPRP	0.111
RRIRMRPPRLPRPRPRPCVWPRP	0.245
RRIRRRPPRLPRPRPRPADLPRP	-0.141
RRIRPRPPRLPRPRPRPLTSPRP	-0.125
RRIRLRPPRLPRPRPRPLFSPRP	-0.588
RRIRWRPPRLPRPRPRPVCVPRP	0.193
RRIRKRPPRLPRPRPRPFSHPRP	-0.131
RRIRQRPPRLPRPRPRPFTKPRP	-0.0312
RRIRYRPPRLPRPRPRPNLYPRP	-0.658
RRIRWRPPRLPRPRPRPINKPRP	-0.431
RRIRFRPPRLPRPRPRPWHTPRP	-0.0673
RRIRRRPPRLPRPRPRPKFDPRP	0.101
RRIRQRPPRLPRPRPRPIKYPRP	0.00234
RRIRIRPPRLPRPRPRPDDLPRP	0.118
RRIRVRPPRLPRPRPRPIDTPRP	-0.48
RRIRPRPPRLPRPRPRPKQMPRP	0.268
RRIRLRPPRLPRPRPRPHMEPRP	-0.101
RRIRIRPPRLPRPRPRPTKKPRP	0.0727
RRIRNRPPRLPRPRPRPQTEPRP	-0.219

Sequence	shrunken log2 fold change
RRIRERPPRLPRPRPRPCTGPRP	-0.264
RRIRMRPPRLPRPRPRPVLMPRP	0.229
RRIRVRPPRLPRPRPRPEAPPRP	0.000205
RRIRLRPPRLPRPRPRPFSMPRP	-0.0455
RRIRMRPPRLPRPRPRPVNFPRP	-0.114
RRIRPRPPRLPRPRPRPPHIPRP	0.806
RRIRFRPPRLPRPRPRPPVTPRP	-0.132
RRIRFRPPRLPRPRPRPTSGPRP	0.219
RRIRPRPPRLPRPRPRPGPAPRP	0.51
RRIRWRPPRLPRPRPRPRCHPRP	0.33
RRIRSRPPRLPRPRPRPPQRPRP	0.451
RRIRPRPPRLPRPRPRPCICPRP	-0.728
RRIRMRPPRLPRPRPRPAFMPRP	0.211
RRIRSRPPRLPRPRPRPDGRPRP	0.0253
RRIRNRPPRLPRPRPRPEDDPRP	-0.01
RRIRDRPPRLPRPRPRPSDKPRP	0.0657
RRIRKRPPRLPRPRPRPVTHPRP	0.0561
RRIRFRPPRLPRPRPRPKPVPRP	0.727
RRIRKRPPRLPRPRPRPNASPRP	0.236
RRIRKRPPRLPRPRPRPFAYPRP	0.0165
RRIRSRPPRLPRPRPRPETYPRP	-0.293
RRIRYRPPRLPRPRPRPYMIPRP	-0.0298

Sequence	shrunken log2 fold change
RRIRNRPPRLPRPRPRPDQRPRP	0.021
RRIRFRPPRLPRPRPRPQTNPRP	-0.619
RRIRARPPRLPRPRPRPMLNPRP	-0.167
RRIRNRPPRLPRPRPRPSFCPRP	-0.548
RRIRKRPPRLPRPRPRPEDSPRP	1.28
RRIRGRPPRLPRPRPRPNVIPRP	0.211
RRIRCRPPRLPRPRPRPRFMPRP	-0.244
RRIRFRPPRLPRPRPRPSSIPRP	-0.945
RRIRYRPPRLPRPRPRPATCPRP	0.0415
RRIRFRPPRLPRPRPRPHVEPRP	-0.00526
RRIRGRPPRLPRPRPRPSQVPRP	0.235
RRIRYRPPRLPRPRPRPAKRPRP	0.167
RRIRVRPPRLPRPRPRPEWTPRP	0.171
RRIRARPPRLPRPRPRPKTKPRP	0.0731
RRIRDRPPRLPRPRPRPLPSPRP	-0.0341
RRIRERPPRLPRPRPRPTNRPRP	-0.242
RRIRSRPPRLPRPRPRPHYMPRP	-0.273
RRIRFRPPRLPRPRPRPIDEPRP	0.121
RRIRVRPPRLPRPRPRPGREPRP	-0.00937
RRIRVRPPRLPRPRPRPNSNPRP	-0.74
RRIRYRPPRLPRPRPRPTVIPRP	-0.146
RRIRVRPPRLPRPRPRPWLNPRP	-0.106

Sequence	shrunken log2 fold change
RRIRYRPPRLPRPRPRPVCWPRP	0.196
RRIRTRPPRLPRPRPRPLMTPRP	0.0717
RRIRFRPPRLPRPRPRPGDDPRP	0.342
RRIRGRPPRLPRPRPRPITWPRP	-0.0883
RRIRARPPRLPRPRPRPAYSPRP	-0.0547
RRIRDRPPRLPRPRPRPFYIPRP	-0.796
RRIRQRPPRLPRPRPRPNWVPRP	0.00521
RRIRQRPPRLPRPRPRPSQAPRP	0.103
RRIRDRPPRLPRPRPRPVDAPRP	-0.0229
RRIRHRPPRLPRPRPRPRNMPRP	-0.65
RRIRGRPPRLPRPRPRPACFPRP	0.939
RRIRQRPPRLPRPRPRPVQKPRP	0.25
RRIRHRPPRLPRPRPRPLECPRP	-0.257
RRIRMRPPRLPRPRPRPLSIPRP	-0.0206
RRIRIRPPRLPRPRPRPQYPPRP	-0.32
RRIRPRPPRLPRPRPRPWSKPRP	0.00178
RRIRDRPPRLPRPRPRPYYYPRP	-1.11
RRIRIRPPRLPRPRPRPNSNPRP	-0.983
RRIRNRPPRLPRPRPRPDFVPRP	-0.045
RRIRFRPPRLPRPRPRPSSSPRP	-0.625
RRIRIRPPRLPRPRPRPDDKPRP	-0.266
